In PMC8463877, “The binding of the small heat-shock protein αB-crystallin to fibrils of α-synuclein is driven by entropic forces” (Proceedings of the National Academy of Sciences of the …, 2021):

Experiments:
Conditions in all cases: both partners purified
[1] = molecular target: T1, α-synuclein amyloid fibrils (unlabeled) (UniProt P37840 1-140); assay: microfluidic diffusional sizing; global analysis of the kinetics at 7, 10, 17, 20, 25, 30 and 37 °C: binding-site concentration fitted globally; nonlinear van't Hoff analysis of KD,app, reference temperature 310 K (37 °C value not used)
[2] = molecular target: T1, α-synuclein amyloid fibrils (unlabeled); assay: microfluidic diffusional sizing; kinetics in free solution, 1 μM GFP-αB-c with 10 μM α-syn fibrils, 7 °C, PBS pH 7.2, 0.1 % NaN3; koff calculated from the association kinetics
[3] = molecular target: T1, α-synuclein amyloid fibrils (unlabeled); assay: microfluidic diffusional sizing; dissociation of bound αB-c followed in a saturated α-syn fibril solution at 7 °C
[4] = molecular target: T1, α-synuclein amyloid fibrils (unlabeled); assay: microfluidic diffusional sizing; equilibrium titration, 1 to 100 μM α-syn fibrils with 1 μM αB-c, 25 °C, 3 d, PBS pH 7.2, 0.1 % NaN3; noncooperative single-site model, binding-site ratio 1:5.4 fixed; apparent
[5] = molecular target: T1, α-synuclein amyloid fibrils (unlabeled); assay: microfluidic diffusional sizing; kinetics in free solution, 1 μM GFP-αB-c with 10 μM α-syn fibrils, 25 °C, PBS pH 7.2, 0.1 % NaN3; aliquots over 50 to 150 h; second-order rate equation; apparent constants, KD from koff/kon, per monomer equivalent of αB-c
[6] = molecular target: T1, α-synuclein amyloid fibrils (unlabeled); assay: microfluidic diffusional sizing; kinetics in free solution, 1 μM GFP-αB-c with 10 μM α-syn fibrils, 20 °C, PBS pH 7.2, 0.1 % NaN3; apparent constants, KD from koff/kon

dH [1]: 443 ± 107 kJ⋅mol^−1
stoichiometry N [1]: 5.4 α-syn equivalents per αB-c equivalent
koff [2]: 2.6e-05 s⁻¹
koff [3]: 5.6e-05 s⁻¹
Kd [4]: 261 ± 76 nM
Kd [5]: 373 ± 238 nM
koff [5]: 2.7e-06 s⁻¹
kon [5]: 7.1 ± 2.6 M⁻¹ s⁻¹
Kd [6]: 4100 ± 1700 nM
B1: GFP-labeled αB-crystallin (αB-c-TEV site-GFP-His tag) (natural protein)
chain: MDIAIHHPWIRRPFFPFHSPSRLFDQFFGEHLLESDLFPTSTSLSPFYLRPPSFLRAPSWFDTGLSEMRLEKDRFSVNLDVKHFSPEELKVKVLGDVIEVHGKHEERQDEHGFISREFHRKYRIPADVDPLTITSSLSSDGVLTVNGPRKQVSGPERTIPITREEKPAVTAAPKK
notes: αB-crystallin, small heat-shock protein; Arrangement as printed: αB-c-TEV site-GFP-His tag; a TEV site lies between αB-c and GFP; Present as a polydisperse ensemble of oligomers; concentrations are in monomer equivalents; also called αB-c-GFP; small heat-shock protein αB-crystallin; not shown: GFP, C-terminal, kept
